Measurements as given in patent US20090297535A1 (Ablynx, published 2009).

Target: T1, recombinant human IL6 (human, UniProt P05231 30-212)
T1 construct: Amine-coupled to a CM5 chip in the Biacore assay; used biotinylated in the Alphascreen assays; also called interleukin-6; biotinylated human IL6
Assay: SPR, Biacore 3000; IL6 amine-coupled on CM5 chip, periplasmic extract injected
Procedure: Off-rate analysis of Nanobodies binding to IL6 was done by surface plasmon resonance on a Biacore 3000 instrument. Recombinant human IL6 was covalently bound to a CM5 sensor chip via amine coupling at a density of ˜500 RU. Remaining reactive groups were inactivated. Periplasmic extracts prepared from E. coli cells expressing anti-IL6 Nanobodies were diluted 10 or 15-fold and injected for 4 min to allow for binding to IL6 immobilized on the chip. Buffer without Nanobody was sent over the chip for 30 min to allow for spontaneous dissociation of bound Nanobody. The dissociation phase was used to calculate the koff values for each individual Nanobody (table B-1).

koff | Binder
0.00082 s⁻¹ | NC6 (VHH, Monovalent Nanobody) VHH: EVQLVESGGGLVQAGGSLRLSCAASGPTFSSYAMGWFRQAPGKDREFVAAISSNGGSTRYADSVKGRFTISRDSAKNTAYLQMNSLKLEDTAVYYCAADETTGWVQLADFRSWGQGTQVTVSS
0.0016 s⁻¹ | PMP23H2 (VHH, Monovalent Nanobody) VHH: AVQLVDSGGGLVQPGGSLRLSCAASGSIFSRLAMDWYRQAPGKQRELVASIAVSGTTMLDDSVKGRFTISRDNAENTVYLQMNSLKPEDTAVYYCMAFDGYTGSDYWGRGTQVTVSS
0.00222 s⁻¹ | PMP21E12 (VHH, Monovalent Nanobody) VHH: AVQLVESGGGLVQPGGSLRLSCAASGSITSINPMGWYRQAPGKQRELVARIHGSITNYADSVKGRFTISRDIAKNTVYLQMNSLKPEDTAVYYCNARRWGYDYWGQGAQVTVSS
0.000897 s⁻¹ | PMP21C12 (VHH, Monovalent Nanobody) VHH: AVQLVESGGGLVQPGGSLRLSCAASGSITGINPMGWYRQAPGKQRELVARIHGSITNYADSVKGRFTISRDIAKNTAYLQMNSLKPEDTAVYYCNARRWGYDYWGQGAQVTVSS
0.00116 s⁻¹ | PMP21C2 (VHH, Monovalent Nanobody) VHH: QVQLVESGGGLVQPGGSLRLSCAASEYITSINPMAWYRQAPGKQRDLVARIFGGGSTNYADSVKGRFTISRDIAKNTVSLQMNSLKPEDTAVYYCNARRWGYDYWGQGTQVTVSS
0.00056 s⁻¹ | NC3 (VHH, Monovalent Nanobody) VHH: EVQLVESGGGLVQPGGSLRLSCAASGNIAAINVMNWYRQAPGTQREFVAAITSGGRKNYADSVKGRFTISRDNAKNTVHLQMNSLKPEDTAVYYCNADAPLASDDDVAPADYWGQGTQVTVSS
0.000433 s⁻¹ | PMP6G10 (VHH, Monovalent Nanobody) VHH: QVQLVESGGGLAQAGGSLRLSCVVSGRTFSPYTIGWFSQRPGKEREWVATIIGSDRSTDLDGDTYYADSVRGRFTISRNDAKNTVSLQMNSLKPEDSAVYYCALTAKGYVFTDNEYDYWGQGTQVTVSS
0.000243 s⁻¹ | PMP20D2 (VHH, Monovalent Nanobody) VHH: AVQLVESGGGLVQPGGSLRLSCAASGSISRFNIMGWYRQAPGKQRELVADITNRGTTNYADSVKGRFTISRDNTKNTVYLQMNSLKPDDTAVYYCHTYYPTTGFDDWGQGTQVTVSS
0.000199 s⁻¹ | PMP6B7 (VHH, Monovalent Nanobody) VHH: QVQLVESGGGLVQAGGSLRLSCAASGGTFSAFPMGWFRQAPGKERKFVAGISQSGGSTHYSDSVKGRFTISRENAKNTVYLQMNSLKPEDTAVYYCAARGRTLALRNYAYTTEVGYDDWGQGTQVTVSS
0.000631 s⁻¹ | PMP6E9 (VHH, Monovalent Nanobody) VHH: EVQLVESGGGLVQAGGSLRLSCAASGRTFSSYPMGWFRQAPGKERKFVAGISQSSSSTAYSDSVKGRFTISRENAKNTVYLQMNSLKPEDTAVYYCAARGRTLALRDYAYTTEVGYDDWGQGTQVTVSS
0.000229 s⁻¹ | PMP14G11 (VHH, Monovalent Nanobody) VHH: QVQLVESGGGLVQAGGSLRLSCAASGGTFSSFPMGWFRQAPGKGREFVAGISQSGGSTHYSDSVKGRFTISRENAKNTVYLQMNSLKPEDTAVYYCAARGRTLALRNYAYTTEVGYDDWGQGTQVTVSS
0.00057 s⁻¹ | PMP14E1 (VHH, Monovalent Nanobody) VHH: QVQLVESGGGLVQAGGSLRLSCAASGRTFSSYPMGWFRQAPGKERKFVAGISQSGGSTAYSDSVKGRFTISRENAKSTVYLQMNSLKPEDTAVYYCAARDKTLALRDYAYTTDVGYDDWGQGTQVTVSS
0.00079 s⁻¹ | PMP14G1 (VHH, Monovalent Nanobody) VHH: QVKLEESGGGLVQAGGSLRLSCAASGGTFSAFPMGWFRQAPGKEREFVAGISQSGGSTHYSDSVKGRFTISKENAKNTVYLQMNSLKPEDTAVYYCAARGGTLALRNYAYTTEVGYDDWGQGTQVTVSS
0.000531 s⁻¹ | PMP14E9 (VHH, Monovalent Nanobody) VHH: AVQLVESGGGLVQAGGSLRLSCAASGGTFSAFPMGWFRQAPGKEREFVAGISQSGGSTHYSDSVKGRFTISKENAKSTVYLQMNSLKPEDTAVYYCAARGRTLALRNYAYTTEVGYDDWGQGTQVTVSS
0.000211 s⁻¹ | PMP12C5 (VHH, Monovalent Nanobody) VHH: DVQLVESGGGLVQAGGSLRLSCAASGGTFTSYPMGWFRQAPGKERKFVAGISQSGGSTAYSDSVKGRFTISRENAKTTVYLQMNSLKPEDTAVYYCAARGRTLFLRGYAYTTEVGYDDWGQGTQVTVSS
0.00015 s⁻¹ | PMP17B5 (VHH, Monovalent Nanobody) VHH: QVQLVESGGGLVQAGGSLRLSCAASGGTFSAFPMGWFRQAPGKERKFVAGISQSGGSTHYSDSVKGRFTISRENAKNTIYLQMNSLKPEDTAVYYCAARGRTLALRNYAYTTEVGYDDWGQGTQVTVSS

koff | Binder
0.000131 s⁻¹ | PMP14A8 (VHH, Monovalent Nanobody) VHH: EVQLVESGGGLVQAGGSLRLSCAASGGTFSSFPMGWFRQAPGKERKFVAGISQSGGSTHYSDSVKGRFTISRENAKNTVYLQMNNLKPEDTAVYYCAARGRTLALRNYAYTTEVGYDDWGQGTQVTVSS
0.00019 s⁻¹ | PMP9F9 (VHH, Monovalent Nanobody) VHH: AVQLVESGGGLVQAGGSLRLSCAASGGTFSSFPMGWFRQAPGEKREFVAGISQSGGSTHYSDSVKGRFTISRENARNTVYLQMNSLKPEDTAVYYCAARGRTLALRNYAYTTEVGYDDWGQGTQVTVSS
0.000243 s⁻¹ | PMP12H3 (VHH, Monovalent Nanobody) VHH: AVQLVDSGGGLVQAGGSLRLSCAASGGTFTSYPMGWFRQAPGKERKFVAGISQSGGSTAYSDSVKGRFTISRENAKTTVYLQMNSLKPEDTAVYYCAARGRTLFLRDYAYTTEVGYDDWGQGTQVTVSS
0.000669 s⁻¹ | PMP17G7 (VHH, Monovalent Nanobody) VHH: QVKLEESGGGLVQAGGSLRLSCAASGGTFSSYPMGWFRQAPGKEREFVTGISQSGGSTAYSDSVKGRFTISRENAKNTVYLQMNSLKPEDTAVYYCAARGRTIALRNYAYTTEVGYDDWGQGTQVTVSS
0.00116 s⁻¹ | PMP17D7 (VHH, Monovalent Nanobody) VHH: AVQLVDSGGGLVQAGGSLRLSCAASGGTFSAFPMGWFRQAPGKEREFVAGISQSGGSTHYSDSVKGRFTISKENAKNTVYLQMNSLKPEDTAVYYCAARGRTLALRNYAYTTEVGYDDWGQGTQVTVSS
0.00309 s⁻¹ | PMP7H3 (VHH, Monovalent Nanobody) VHH: DVQLVESGGGLVQPGGSLRLSCAASGFTLDYYGVGWFRQAPGKEREGVSCISSSDGDTYYADSVKGRFTISRDNAKNTVYLQMNSLKPEDTAVYYCATDLSDYGVCSRWPSPYDYWGQGTQVTVSS
0.00519 s⁻¹ | PMP22E3 (VHH, Monovalent Nanobody) VHH: QVQLVESGGGLVQPGGSLRLSCAASGFTLDDSAIGWFRQAPGKEREGVSCISSSDGDTYYDDSVKGRFTISRDNVKNMVYLQMNSLKPEDTAVYFCAIDLSDYGVCSKWPSPYDYWGQGTQVTVSS
0.00605 s⁻¹ | PMP9A9 (VHH, Monovalent Nanobody) VHH: QVQLVESGGGLVQPGGSLRLSCAASGFSLDYYGVGWFRQAPGKEREGVSCTSSSDGDTYYADSVKGRFTISRDNAKNTVYLQMNSLKPEDTAVYYCATDLSDYGVCSRWPSPYDYWGQGTQVTVSS
0.000312 s⁻¹ | PMP14G4 (VHH, Monovalent Nanobody) VHH: AVQLVDSGGGLVQAGGSLRLSCAASGRTFSSYPMGWFRQGPGKERKFVAGISQSGVGTAYSDSVKGRFTISRENAKNTVYLQMNSLKPEDTAVYYCAARDKTLALRDYAYTTDVGYDDWGQGTQVTVSS
0.000511 s⁻¹ | PMP6D5 (VHH) VHH: QVQLVESGGGLVQAGGSLRLSCAASGRTFSPYTMGWFRQPPGKVREFVGRINWSGIRNYADSVKGRFTISRDNNNNTVYLQMNRLKPEDTAVYYCAAASQSGSGYDSWGQGTQVTVSS
0.000318 s⁻¹ | PMP20G9 (VHH, Monovalent Nanobody) VHH: QVQLVESGGGLVQAGGSLRLSCAASGRTFSPYTVGWFRQPPGKVREFVGRINWSGIRNYADSVKGRFTISRDNNNNTVYLQMNRLKPEDTAVYYCAAASQSGSGYDSWGQGTQVTVSS
0.000251 s⁻¹ | PMP13D8 (VHH, Monovalent Nanobody) VHH: QVKLEESGGGLVQAGSSLRLSCAASGRTSSPYTMGWFRQPPGKVREFVGRINWSGITNYADSVKGRFTISRDNNKNTVYLQMNRLKPEDTAVYYCASASQVGSGYDSWGQGTQVTVSS
0.000195 s⁻¹ | PMP20F4 (VHH, Monovalent Nanobody) VHH: QVQLVESGGGLVQAGGSLRLSCAASGRTFSPYTMGWFRQPPGKVREFVGRINWSGIRNYADSVKGRFTISRDNNNNTVYLQMNRLKPEDTAVYYCAAASRSGSGYDSWGQGTQVTVSS
0.000526 s⁻¹ | PMP21A7 (VHH, Monovalent Nanobody) VHH: AVQLVESGGGLVQAGSSLRLSCAASGRTFSPYTMGWFRQPPGKVREFVGRINWSGITNYADSVKGRFTISRDNNKNTVYLQMNRLKPEDTAVYYCAAASRSGSGYDSWGQGTQVTVSS
0.000396 s⁻¹ | PMP13A1 (VHH, Monovalent Nanobody) VHH: AVQLVDSGGGLVQAGGSLRLSCAASGRTFSPYTMGWFRQPPGKVREFVGRINWSGIRNYADSVKGRFTISRDNNNNTVYLQMNRLKPEDTAVYYCAAASQSGSGYDSWGQGTQVTVSS
0.00189 s⁻¹ | PMP13H6 (VHH, Monovalent Nanobody) VHH: QVKLEESGGGLVQAGGSLRLSCASSGRTFSSYVMGWFRQTPGKEREFVSTINWSGSNKYYADSVKGRFTISRDNAKNTVYLQMNSLKPEDTAVYYCAASAGGFLVPRVGQGYDYWGQGTQVTVSS
